Test [1] addresses T1, human CLDN18.1 (claudin 18.1) (human, UniProt P56856 1-261).
T1 construct: whole, on cells; HEK293 hCLDN18.1); also called hCLDN18.1; CLDN18A1
The test is described as follows: FACS on HEK293 hCLDN18.1 cells.
Procedure: (§1) The cell density was adjusted to 10⁶ cells/ml, and 50 μl of cell suspension was added to each well of a 96-well plate. Antibodies were diluted to different concentrations with FACS buffer and 50 μl of antibody dilution was added to each well of the 96-well plate. After incubation at 4° C. for 2 hours, the plate was washed 2 times with FACS buffer. […] After incubation at 4° C. for 1 hour, the plate was washed 2 times with FACS buffer. The cells were resuspended with fixative for monitoring the fluorescence of the cells using a FACS machine (ACEA NovoCyte).

In test [2] the target is T2, human CLDN18.2 (claudin 18.2) (human).
T2 construct: HEK293 hCLDN18.2) or endogenously on NUGC4_D8 cells; also called hCLDN18.2; CLD18A2
Nature of the test: FACS on NUGC4_D8 cells endogenously expressing CLDN18.2.
Procedure: as §1

Test [3] addresses T2, human CLDN18.2 (claudin 18.2). The test is described as follows: cell-based or functional assay.
Test [4] has the same target. Nature of the test: cell-based or functional assay. The source holds these as a separate data set.
Test [5] shares this target. Nature of the test: FACS on HEK293 hCLDN18.2 cells, APC anti-human IgG secondary.
Procedure: as §1
Test [6] has the same target. The test is described as follows: cell-based or functional assay. The source holds these as a separate data set.
Test [7] shares this target. Nature of the test: FACS on NUGC4_D8 cells endogenously expressing CLDN18.2. This is another data set of the same source.
Procedure: as §1
The target is the same in test [8]. The test is described as follows: FACS on NUGC4_D8 cells.
Procedure: as §1

T1 sequence (P56856 whole entry): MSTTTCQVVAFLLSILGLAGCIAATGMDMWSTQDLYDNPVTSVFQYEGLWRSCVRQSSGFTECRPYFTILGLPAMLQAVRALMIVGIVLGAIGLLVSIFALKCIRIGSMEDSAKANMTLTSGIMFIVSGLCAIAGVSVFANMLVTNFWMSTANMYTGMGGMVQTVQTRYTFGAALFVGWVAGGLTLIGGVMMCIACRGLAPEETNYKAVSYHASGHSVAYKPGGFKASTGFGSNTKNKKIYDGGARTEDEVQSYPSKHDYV

B1: PR002725 (antibody, human IgG1, kappa, V domains shown)
VH: EVQLLESGGGLVQPGGSLRLSCAASGFTFSGYVMSWVRQAPGKGLEWVSAISGSGGSKYYADSVKGRFTISRDNSKNTLYLQMNSLRAEDTAVYYCAKGDIAVLLFDYWGQGTLVTVSS
VL: EMVMTQSPATLSVSPGERATLSCRASQSVSRNLAWFQQKPGQAPRLLIYGASTRATGIPARFSGSGSGTEFTLTISSLQSEDFAVYYCQQYNNWPLTFGGGTKVEIKR
notes: Human IgG1/kappa; also called clone 11C12-13C2
For the molecule B1, the binding result in test [1] is listed as “binds”.

B2: PR002727 (antibody, human IgG1, kappa, V domains shown)
VH: EVQLVESGGGVVQPGRSLRLSCAASGFTFSSYGMHWVRQAPGKGLEWVAVIWYDGSNKYYADSVKGRFTISRDNSKNTLYLQMNSLRAEDTAVYYCAKDGYYGSGTYYYYVMNAWGQGASVTVSS
VL: EIVMTQSPATLSVSPGERVTLSCRASQSVSSNLAWYQQKPGQAPRLLIYGASTRATGIPARFSGSGSGTEFTLTISSLQSEDFAVYYCQQYNYWPLTFGGGTKVEIKR
notes: Human IgG1/kappa; also called clone 31H3E2
For B2, the binding result in test [2] is recorded as “binds”.

B3: PR003292 (antibody, human IgG1, kappa)
heavy: EVQLLESGGGLVQPGGSLRLSCAASGFTFSSFVMSWVRQAPGKGLEWVSTISGSGRSTYYADSVKGRFTISRDNSKNTLHLQMNSLRAEDTAVYYCAKDAAAAGTKFDYWGQGTLVTVSSASTKGPSVFPLAPSSKSTSGGTAALGCLVKDYFPEPVTVSWNSGALTSGVHTFPAVLQSSGLYSLSSVVTVPSSSLGTQTYICNVNHKPSNTKVDKKVEPKSCDKTHTCPPCPAPELLGGPSVFLFPPKPKDTLYITREPEVTCVVVDVSHEDPEVKFNWYVDGVEVHNAKTKPREEQYNSTYRVVSVLTVLHQDWLNGKEYKCKVSNKALPAPIEKTISKAKGQPREPQVYTLPPSREEMTKNQVSLTCLVKGFYPSDIAVEWESNGQPENNYKTTPPVLDSDGSFFLYSKLTVDKSRWQQGNVFSCSVMHEALHNHYTQKSLSLSPGK
light: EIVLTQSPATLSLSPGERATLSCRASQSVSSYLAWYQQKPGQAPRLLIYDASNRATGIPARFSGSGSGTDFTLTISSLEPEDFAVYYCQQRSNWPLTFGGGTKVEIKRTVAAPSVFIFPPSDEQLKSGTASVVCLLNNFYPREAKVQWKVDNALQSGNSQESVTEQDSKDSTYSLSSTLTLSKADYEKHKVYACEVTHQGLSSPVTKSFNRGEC
For B3, the binding result in test [1] is “binds”.

B4: PR003293 (antibody, human IgG1, kappa)
heavy: EVQLLESGGGLVQPGGSLRLSCAASGFTFSSFVMSWVRQAPGKGLEWVSTISGSGRSTYYADSVKGRFTISRDNSKNTLHLQMNSLRAEDTAVYYCAKDAAAAGTKFDYWGQGTLVTVSSASTKGPSVFPLAPSSKSTSGGTAALGCLVKDYFPEPVTVSWNSGALTSGVHTFPAVLQSSGLYSLSSVVTVPSSSLGTQTYICNVNHKPSNTKVDKKVEPKSCDKTHTCPPCPAPELLGGPDVFLFPPKPKDTLYITREPEVTCVVVDVSHEDPEVKFNWYVDGVEVHNAKTKPREEQYNSTYRVVSVLTVLHQDWLNGKEYKCKVSNKALPAPEEKTISKAKGQPREPQVYTLPPSREEMTKNQVSLTCLVKGFYPSDIAVEWESNGQPENNYKTTPPVLDSDGSFFLYSKLTVDKSRWQQGNVFSCSVMHEALHNHYTQKSLSLSPGK
light: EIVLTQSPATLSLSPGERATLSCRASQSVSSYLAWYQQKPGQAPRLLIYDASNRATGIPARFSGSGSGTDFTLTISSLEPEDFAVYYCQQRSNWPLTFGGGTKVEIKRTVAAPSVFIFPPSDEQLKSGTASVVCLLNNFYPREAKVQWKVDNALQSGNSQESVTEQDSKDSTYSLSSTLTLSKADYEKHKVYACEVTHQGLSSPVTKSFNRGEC
For B4, the binding result in test [1] is reported as “binds”.

B5: PR003340 (antibody, human IgG1, kappa)
heavy: EVQLLESGGGLVQPGGSLRLSCAASGFTFSSFVMSWVRQAPGKGLEWVSTISGSGRSTYYADSVKGRFTISRDNSKNTLHLQMNSLRAEDTAVYYCAKDAAAAGTKFDYWGQGTLVTVSSASTKGPSVFPLAPSSKSTSGGTAALGCLVKDYFPEPVTVSWNSGALTSGVHTFPAVLQSSGLYSLSSVVTVPSSSLGTQTYICNVNHKPSNTKVDKKVEPKSCDKTHTCPPCPAPELLGGPDVFLFPPKPKDTLMISRTPEVTCVVVDVSHEDPEVQFNWYVDGVEVHNAKTKPREEQFNSTFRVVSVLTVVHQDWLNGKEYKCKVSNKALPAPEEKTISKTKGQPREPQVYTLPPSREEMTKNQVSLTCLVKGFYPSDIAVEWESNGQPENNYKTTPPMLDSDGSFFLYSKLTVDKSRWQQGNVFSCSVMHEALHNHYTQKSLSLSPGK
light: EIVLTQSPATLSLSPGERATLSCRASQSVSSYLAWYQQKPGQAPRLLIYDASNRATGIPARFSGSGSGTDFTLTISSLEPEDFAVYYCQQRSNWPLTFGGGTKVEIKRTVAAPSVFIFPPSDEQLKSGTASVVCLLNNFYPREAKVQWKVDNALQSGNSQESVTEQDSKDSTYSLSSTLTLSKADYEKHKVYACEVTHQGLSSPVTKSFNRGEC
As to B5, the binding result in test [1] is “binds”.

B6: IMAB362 analogue (antibody, human IgG1, kappa, V domains shown)
VH: QVQLQQPGAELVRPGASVKLSCKASGYTFTSYWINWVKQRPGQGLEWIGNIYPSDSYTNYNQKFKDKATLTVDKSSSTAYMQLSSPTSEDSAVYYCTRSWRGNSFDYWGQGTTLTVSS
VL: DIVMTQSPSSLTVTAGEKVTMSCKSSQSLLNSGNQKNYLTWYQQKPGQPPKLLIYWASTRESGVPDRFTGSGSGTDFTLTISSVQAEDLAVYYCQNDYSYPFTFGSGTKLEIKR
notes: Home-made positive control; variable region identical to IMAB362, a few amino acids differ in the constant region; also called PR000400
One may read the EC50 as the concentration that produces a half-maximal response. In the case of B6, the “EC50 (nM), ADCC with human PBMC on NUGC4_D8 cells” value in test [3] was determined as 0.91 nM. Also, in test [4], the “EC50 (nM), CDC on HEK293 hCLDN18.2 cells” value came to 1.07 nM. The 50% effective concentration (EC50) is 4 nM in test [5] and 20.7 nM in test [7]. The “EC50 (nM), endocytosis in NUGC4_D8 cells (FACS)” value in test [6] is 0.4 nM.

B7: PR003897 (antibody, human IgG1, kappa)
heavy: QVQLVESGGGLVQPGGSLRLSCATSGFTFSSYAMSWVRQAPGKGLEWVSLISGSGGSPYYADSVKGRFTISRDNSKNTLYLQMNSLRAEDTAVYYCAKGVVNWGSLFDYWGQGTLVTVSSASTKGPSVFPLAPSSKSTSGGTAALGCLVKDYFPEPVTVSWNSGALTSGVHTFPAVLQSSGLYSLSSVVTVPSSSLGTQTYICNVNHKPSNTKVDKKVEPKSCDKTHTCPPCPAPELLGGPDVFLFPPKPKDTLMISRTPEVTCVVVDVSHEDPEVQFNWYVDGVEVHNAKTKPREEQFNSTFRVVSVLTVVHQDWLNGKEYKCKVSNKALPAPEEKTISKTKGQPREPQVYTLPPSREEMTKNQVSLTCLVKGFYPSDIAVEWESNGQPENNYKTTPPMLDSDGSFFLYSKLTVDKSRWQQGNVFSCSVMHEALHNHYTQKSLSLSPGK
light: not shown
Regarding B7, the binding result in test [8] and in test [1] was “binds” each time.

The values are drawn from patent publication US20260209344A1 (NONA BIOSCIENCES SUZHOU, published 2026).
